Source: patent US20090263375A1 (WISCONSIN ALUMNI RESEARCH FOUNDATION, published 2009)

T1: Symplekin (human, UniProt Q92797 1-1274)
T1 sequence (looked up): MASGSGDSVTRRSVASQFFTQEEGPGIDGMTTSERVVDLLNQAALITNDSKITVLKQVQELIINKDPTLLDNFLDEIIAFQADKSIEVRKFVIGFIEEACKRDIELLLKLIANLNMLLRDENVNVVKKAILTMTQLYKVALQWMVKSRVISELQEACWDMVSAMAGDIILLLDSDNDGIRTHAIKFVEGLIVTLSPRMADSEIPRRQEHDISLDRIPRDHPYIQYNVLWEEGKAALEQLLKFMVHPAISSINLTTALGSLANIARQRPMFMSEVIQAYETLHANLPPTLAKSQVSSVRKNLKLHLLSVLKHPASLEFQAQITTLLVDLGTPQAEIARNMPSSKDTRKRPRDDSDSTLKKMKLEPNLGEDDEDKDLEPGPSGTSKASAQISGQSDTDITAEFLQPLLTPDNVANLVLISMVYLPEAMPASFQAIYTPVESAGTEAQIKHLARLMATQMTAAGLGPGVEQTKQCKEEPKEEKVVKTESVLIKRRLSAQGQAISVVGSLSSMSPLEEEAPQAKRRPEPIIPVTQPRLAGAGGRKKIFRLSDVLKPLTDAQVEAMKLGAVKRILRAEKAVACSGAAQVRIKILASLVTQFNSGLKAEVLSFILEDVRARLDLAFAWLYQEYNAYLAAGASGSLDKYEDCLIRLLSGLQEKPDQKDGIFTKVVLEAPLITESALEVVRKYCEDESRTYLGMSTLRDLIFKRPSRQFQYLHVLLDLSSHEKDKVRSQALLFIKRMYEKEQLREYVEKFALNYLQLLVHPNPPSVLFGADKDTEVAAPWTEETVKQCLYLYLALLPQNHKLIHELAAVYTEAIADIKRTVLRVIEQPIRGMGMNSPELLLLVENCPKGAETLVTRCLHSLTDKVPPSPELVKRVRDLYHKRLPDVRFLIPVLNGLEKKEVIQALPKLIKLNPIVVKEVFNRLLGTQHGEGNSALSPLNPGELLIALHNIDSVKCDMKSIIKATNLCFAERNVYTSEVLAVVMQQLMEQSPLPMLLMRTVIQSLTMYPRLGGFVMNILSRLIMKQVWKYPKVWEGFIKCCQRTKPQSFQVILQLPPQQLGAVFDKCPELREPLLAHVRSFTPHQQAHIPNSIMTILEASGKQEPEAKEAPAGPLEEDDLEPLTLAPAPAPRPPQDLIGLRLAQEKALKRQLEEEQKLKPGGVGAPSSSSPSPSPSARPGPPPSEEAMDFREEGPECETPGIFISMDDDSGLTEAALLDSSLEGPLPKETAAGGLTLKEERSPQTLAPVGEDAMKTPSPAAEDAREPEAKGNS

B1: Flag-Star-PAP (full length) (enzyme)
chain: MAAVDSDVESLPRGGFRCCLCHVTTANRPSLDAHLGGRKHRHLVELRAARKAQGLRSVFVSGFPRGVDSAQLSEYFLAFGPVASVVMDKDKGVFAIVEMGDVGAREAVLSQSQHSLGGHRLRVRPREQKEFQSPASKSPKGAAPDSHQLAKALAEAADVGAQMIKLVGLRELSEAERQLRSLVVALMQEVFTEFFPGCVVHPFGSSINSFDVHGCDLDLFLDLGDLEEPQPVPKAPESPSLDSALASPLDPQALACTPASPPDSQPPASPQDSEALDFETPSSSLAPQTPDSALASETLASPQSLPPASPLLEDREEGDLGKASELAETPKEEKAEGAAMLELVGSILRGCVPGVYRVQTVPSARRPVVKFCHRPSGLHGDVSLSNRLALHNSRFLSLCSELDGRVRPLVYTLRCWAQGRGLSGSGPLLSNYALTLLVIYFLQTRDPPVLPTVSQLTQKAGEGEQVEVDGWDCSFPRDASRLEPSINVEPLSSLLAQFFSCVSCWDLRGSLLSLREGQALPVAGGLPSNLWEGLRLGPLNLQDPFDLSHNVAANVTSRVAGRLQNCCRAAANYCRSLQYQRRSSRGRDWGLLPLLQPSSPSSLLSATPIPLPLAPFTQLTAALVQVFREALGCHIEQATKRTRSEGGGTGESSQGGTSKRLKVDGQKNCCEEGKEEQQGCAGDGGEDRVEEMVIEVGEMVQDWAMQSPGQPGDLPLTTGKHGAPGEEGQPSHAALAERGPKGHEAAQEWSQGEAGKGASLPSSASWRCALWHRVWQGRRRARRRLQQQTKEGAGGGAGTRAGWLATEAQVTQELKGLSGGEERPETEPLLSFVASVSPADRMLTVTPLQDPQGLFPDLHHFLQVFLPQAIRHLK
notes: Expressed in HEK 293 cells and purified on anti-FLAG M2 resin together with its associated complex; also called Flag tagged Star-PAP; full-length Star-PAP; not shown: FLAG tag
B2: CstF-64 (Cleavage-Stimulatory Factor subunit 64) (other, human, UniProt P33240 1-577, looked up)
chain: MAGLTVRDPAVDRSLRSVFVGNIPYEATEEQLKDIFSEVGPVVSFRLVYDRETGKPKGYGFCEYQDQETALSAMRNLNGREFSGRALRVDNAASEKNKEELKSLGTGAPVIESPYGETISPEDAPESISKAVASLPPEQMFELMKQMKLCVQNSPQEARNMLLQNPQLAYALLQAQVVMRIVDPEIALKILHRQTNIPTLIAGNPQPVHGAGPGSGSNVSMNQQNPQAPQAQSLGGMHVNGAPPLMQASMQGGVPAPGQMPAAVTGPGPGSLAPGGGMQAQVGMPGSGPVSMERGQVPMQDPRAAMQRGSLPANVPTPRGLLGDAPNDPRGGTLLSVTGEVEPRGYLGPPHQGPPMHHVPGHESRGPPPHELRGGPLPEPRPLMAEPRGPMLDQRGPPLDGRGGRDPRGIDARGMEARAMEARGLDARGLEARAMEARAMEARAMEARAMEARAMEVRGMEARGMDTRGPVPGPRGPIPSGMQGPSPINMGAVVPQGSRQVPVMQGTGMQGASIQGGSQPGGFSPGQNQVTPQDHEKAALIMQVLQLTADQIAMLPPEQRQSILILKEQIQKSTGAP
B3: CPSF-100 (Cleavage and Polyadenylation Specificity Factor subunit 100) (other, human, UniProt Q9P2I0 1-782, looked up)
chain: MTSIIKLTTLSGVQEESALCYLLQVDEFRFLLDCGWDEHFSMDIIDSLRKHVHQIDAVLLSHPDPLHLGALPYAVGKLGLNCAIYATIPVYKMGQMFMYDLYQSRHNTEDFTLFTLDDVDAAFDKIQQLKFSQIVNLKGKGHGLSITPLPAGHMIGGTIWKIVKDGEEEIVYAVDFNHKREIHLNGCSLEMLSRPSLLITDSFNATYVQPRRKQRDEQLLTNVLETLRGDGNVLIAVDTAGRVLELAQLLDQIWRTKDAGLGVYSLALLNNVSYNVVEFSKSQVEWMSDKLMRCFEDKRNNPFQFRHLSLCHGLSDLARVPSPKVVLASQPDLECGFSRDLFIQWCQDPKNSIILTYRTTPGTLARFLIDNPSEKITEIELRKRVKLEGKELEEYLEKEKLKKEAAKKLEQSKEADIDSSDESDIEEDIDQPSAHKTKHDLMMKGEGSRKGSFFKQAKKSYPMFPAPEERIKWDEYGEIIKPEDFLVPELQATEEEKSKLESGLTNGDEPMDQDLSDVPTKCISTTESIEIKARVTYIDYEGRSDGDSIKKIINQMKPRQLIIVHGPPEASQDLAECCRAFGGKDIKVYMPKLHETVDATSETHIYQVRLKDSLVSSLQFCKAKDAELAWIDGVLDMRVSKVDTGVILEEGELKDDGEDSEMQVEAPSDSSVIAQQKAMKSLFGDDEKETGEESEIIPTLEPLPPHEVPGHQSVFMNEPRLSDFKQVLLREGIQAEFVGGVLVCNNQVAVRRTETGRIGLEGCLCQDFYRIRDLLYEQYAIV
notes: also called SPSF-100
B4: CPSF-73 (Cleavage and Polyadenylation Specificity Factor subunit 73) (enzyme, human, UniProt Q9UKF6 2-684, looked up)
chain: SAIPAEESDQLLIRPLGAGQEVGRSCIILEFKGRKIMLDCGIHPGLEGMDALPYIDLIDPAEIDLLLISHFHLDHCGALPWFLQKTSFKGRTFMTHATKAIYRWLLSDYVKVSNISADDMLYTETDLEESMDKIETINFHEVKEVAGIKFWCYHAGHVLGAAMFMIEIAGVKLLYTGDFSRQEDRHLMAAEIPNIKPDILIIESTYGTHIHEKREEREARFCNTVHDIVNRGGRGLIPVFALGRAQELLLILDEYWQNHPELHDIPIYYASSLAKKCMAVYQTYVNAMNDKIRKQININNPFVFKHISNLKSMDHFDDIGPSVVMASPGMMQSGLSRELFESWCTDKRNGVIIAGYCVEGTLAKHIMSEPEEITTMSGQKLPLKMSVDYISFSAHTDYQQTSEFIRALKPPHVILVHGEQNEMARLKAALIREYEDNDEVHIEVHNPRNTEAVTLNFRGEKLAKVMGFLADKKPEQGQRVSGILVKRNFNYHILSPCDLSNYTDLAMSTVKQTQAIPYTGPFNLLCYQLQKLTGDVEELEIQEKPALKVFKNITVIQEPGMVVLEWLANPSNDMYADTVTTVILEVQSNPKIRKGAVQKVSKKLEMHVYSKRLEIMLQDIFGEDCVSVKDDSILSVTVDGKTANLNLETRTVECEEGSEDDESLREMVELAAQRLYEALTPVH
notes: also called CSPF-73

Experiments:
Assay in all cases: FLAG affinity purification from HEK 293 cells, western blot
[1] = target: T1, Symplekin
Protocol: (§1) Affinity purification of Flag-Star-PAP and Flag-PAPα and their associated complex of proteins in parallel allowed a comparison of the complexes formed by Star-PAP and PAPα in more detail. Flag tagged Star-PAP and PAPα were purified from HEK 293 cells stably expressing Flag-Star-PAP or Flag-PAPα (following manufacturer's instructions; Sigma-Aldrich) and the presence of endogenous symplekin, CPSF¹⁰⁰, CPSF⁷³, CstF⁶⁴, RNA Pol II, Sm protein (Y12) and PIPKIα was assessed by western blotting. Like Flag-PAPα, Flag-Star-PAP associates with symplekin, CPSF¹⁰⁰ and CPSF⁷³, further confirmation that Star-PAP may function in an mRNA polyadenylation complex (FIG. 7). Also detected with both PAPs was a faster migrating form of RNA Pol II and Sm protein (Y-12), a component of the spliceosome, which is consistent with reports that the machinery for splicing and polyadenylation are coupled.

[2] = target: T2, Flag-PAPα (canonical poly(A) polymerase) (Homo sapiens (Human), UniProt P51003 1-745, limits assumed)
T2 construct: not shown: FLAG tag
T2 sequence (P51003 whole entry): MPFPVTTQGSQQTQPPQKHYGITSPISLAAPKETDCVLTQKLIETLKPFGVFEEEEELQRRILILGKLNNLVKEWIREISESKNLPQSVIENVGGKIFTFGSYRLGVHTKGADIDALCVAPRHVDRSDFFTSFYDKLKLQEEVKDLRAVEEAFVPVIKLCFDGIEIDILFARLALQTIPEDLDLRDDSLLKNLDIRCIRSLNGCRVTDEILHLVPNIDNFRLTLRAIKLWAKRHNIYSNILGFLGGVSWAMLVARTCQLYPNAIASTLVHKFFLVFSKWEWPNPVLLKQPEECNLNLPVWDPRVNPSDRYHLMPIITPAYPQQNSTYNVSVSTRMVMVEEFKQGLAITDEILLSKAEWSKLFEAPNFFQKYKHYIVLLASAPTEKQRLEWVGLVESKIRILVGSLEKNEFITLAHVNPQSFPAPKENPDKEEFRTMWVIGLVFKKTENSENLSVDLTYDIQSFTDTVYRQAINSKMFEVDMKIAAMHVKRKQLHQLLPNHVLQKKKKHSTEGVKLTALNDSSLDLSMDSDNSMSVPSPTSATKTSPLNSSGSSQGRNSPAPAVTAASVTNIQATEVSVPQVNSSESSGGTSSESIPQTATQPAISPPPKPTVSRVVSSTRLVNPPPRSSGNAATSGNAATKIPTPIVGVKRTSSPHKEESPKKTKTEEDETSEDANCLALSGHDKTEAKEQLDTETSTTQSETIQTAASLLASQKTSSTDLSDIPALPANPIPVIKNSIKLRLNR
Protocol: as §1

[3] = target: B1
Protocol: as §1

| binding result [1] | binding result [2] | binding result [3] | Binder |
| --- | --- | --- | --- |
| binds |  |  | B1 |
|  | no binding | binds | B2 |
|  |  | binds | B3 |
|  | binds | binds | B4 |
